Laboratory results: patent US20230250186A1 (published 2023)

T1: rat CD38 extracellular protein (rat, UniProt Q64244 45-303)
T1 construct: extracellular domain; Purchased; also called CD38 protein molecules of rats
T1 sequence (looked up): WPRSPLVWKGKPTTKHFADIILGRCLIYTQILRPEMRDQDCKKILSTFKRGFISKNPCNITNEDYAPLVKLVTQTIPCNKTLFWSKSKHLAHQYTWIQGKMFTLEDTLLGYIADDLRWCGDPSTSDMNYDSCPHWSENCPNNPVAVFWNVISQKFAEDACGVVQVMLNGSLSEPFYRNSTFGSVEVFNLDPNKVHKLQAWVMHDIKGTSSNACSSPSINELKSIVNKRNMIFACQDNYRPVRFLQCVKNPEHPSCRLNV

T2: mouse CD38 extracellular protein (mouse, UniProt P56528 45-304)
T2 construct: extracellular domain; Purchased; also called CD38 protein molecules of mice
T2 sequence (looked up): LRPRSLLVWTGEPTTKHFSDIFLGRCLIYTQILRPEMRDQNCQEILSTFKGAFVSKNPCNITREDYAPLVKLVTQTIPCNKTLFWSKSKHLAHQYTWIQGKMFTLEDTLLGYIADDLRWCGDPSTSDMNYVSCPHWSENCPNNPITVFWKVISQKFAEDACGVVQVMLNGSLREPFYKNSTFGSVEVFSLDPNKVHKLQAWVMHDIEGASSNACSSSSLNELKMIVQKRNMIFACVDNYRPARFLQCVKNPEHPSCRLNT


What was measured:
CD38-His fusion protein = biological target: T3, CD38-His fusion protein (UniProt P28907 43-300, limits assumed); assay: ELISA on coated CD38-His, anti-human IgG HRP
T3 construct: also called target antigen CD38-His; not shown: His tag

[1] = biological target: T4, CD38 protein on the surface of Raji, Daudi, Ramos and RPMI8226 cells (human, UniProt P28907 1-300); assay: flow cytometry on Daudi cells
T4 construct: whole, on cells; also called CD38 on the surfaces of Raji cells, Daudi cells, Ramos cells and RPMI8226 cells; cell surface antigen
Experimental: (§1) The logarithmic growth phase cells were collected, adjusted to a cell density of 5×10⁶ cells/mL, and pre-cooled on ice. […] 100 μL of cells were taken, and an equal volume of the diluted antibody was added for reaction at 4° C. for 30 min in the dark. After the completion of reaction, the cells were washed twice. The cells were resuspended in 100 μL of the diluted PE Mouse Anti-Human IgG secondary antibodies (purchased from BD Pharmingen), and reacted at 4° C. in the dark for 30 min. After the completion of reaction, the cells were washed twice with a pre-cooled normal saline containing 2% FBS. The cells were resuspended in 400 μL of 1% paraformaldehyde. Flow cytometry (BD Calibur) was used to analyze the binding ability of antibodies to cell surface antigens.

[2] = biological target: T4, CD38 protein on the surface of Raji, …; assay: flow cytometry on Ramos cells
Experimental: as §1

[3] = biological target: T4, CD38 protein on the surface of Raji, …; assay: cell-based or functional assay
[4] = biological target: T4, CD38 protein on the surface of Raji, …; assay: flow cytometry on RPMI8226 cells
Experimental: as §1

[5] = biological target: T4, CD38 protein on the surface of Raji, …; assay: flow cytometry on Raji cells
Experimental: as §1

BSA (BOVOGEN) = BSA (BOVOGEN) (UniProt P02769 25-607); assay: ELISA on coated protein, anti-human IgG HRP
Experimental: Various proteins, such as milk (Beijing Bomed Biotechnology Co., Ltd.), BSA (BOVOGEN), CD19 (Beijing Yiqiao Shenzhou Biotechnology Co., Ltd.), TROP2 (Beijing Yiqiao Shenzhou Biotechnology Co., Ltd.), CD47 (Beijing Magpel Biotech Technology Co., Ltd.), CD38 (Beijing Yiqiao Shenzhou Biotechnology Co., Ltd.), Gas6 (R&D) and AXL (ACRO Biosystems) were respectively used to coat ELISA strips at 1 mg/ml at 4° C. overnight. After washing with PBST, 10% fetal bovine serum was added and blocked at 37° C. for 1 hour. […] After washing with PBST, horseradish peroxidase-labeled goat anti-human IgG HRP secondary antibodies (purchased from ThermoFisher Scientific) was added and reacted at room temperature for 30 minutes. After washing the plate with PBST (5 times), the residual drops were removed as possible on the absorbent paper. 100 ml TMB (eBioscience) was added to each well and placed at room temperature (20±50) in the dark for 1-5 min. 100 ml of 2N H₂SO₄ stop solution was added to each well to quench the substrate reaction, and the OD value was read at 450 nm with a microplate reader to analyze the antibody-protein binding ability.

[6] = biological target: T1, rat CD38 extracellular protein; assay: ELISA on coated CD38 extracellular protein
Experimental: (§2) The CD38 extracellular proteins (Beijing Yiqiao Shenzhou Biotechnology Co., Ltd.) of different species of human (Human), mouse (Mouse), rat (Rat), cynomolgus monkey (Cynomolgus) and the like were respectively used to coat ELISA strips at 1 mg/ml at 40 overnight. After washing with PBST, 10% fetal bovine serum was added and blocked at 370 for 1 hour. […] After washing with PBST, horseradish peroxidase-labeled goat anti-human IgG HRP secondary antibodies (purchased from Thermo Fisher Scientific) was added and reacted at room temperature for 30 minutes. The plate was washed with PBST (5 times), and the remaining drops were removed as possible on the absorbent paper. 100 ml of TMB (purchased from eBioscience) was added to each well, and placed at room temperature (20±5° C.) in the dark for 1-5 min. 100 ml of 2N H₂SO₄ stop solution was added to each well to quench the substrate reaction, and the OD value was read at 450 nm with a microplate, to analyze the binding ability of the antibody to CD38 protein of different species.

[7] = biological target: T5, cynomolgus monkey CD38 extracellular protein (cynomolgus monkey, UniProt Q5VAN0 44-301); assay: ELISA on coated CD38 extracellular protein
T5 construct: extracellular domain; Purchased; also called CD38 protein molecules of cynomolgus monkeys; Cynomolgus CD38
Experimental: as §2

[8] = biological target: T2, mouse CD38 extracellular protein; assay: ELISA on coated CD38 extracellular protein
Experimental: as §2

antigen CD38 [9] = biological target: T6, antigen CD38 (UniProt P28907 43-300, limits assumed); assay: BIACORE SPR, antibody captured by anti-human IgG-Fab, CD38 as mobile phase
T6 construct: Soluble antigen; also called CD38 antigen
Experimental: (§3) The antibody affinity was analyzed by BIACORE Biomacromolecule Interaction Apparatus (GE).

antigen CD38 [10] = biological target: T6, antigen CD38; assay: BIACORE SPR by the method of Example 4
Experimental: as §3

antigen CD38 [11] = biological target: T6, antigen CD38; assay: binding curve of FIG. 9; method not clearly stated

T5 sequence (Q5VAN0 44-301): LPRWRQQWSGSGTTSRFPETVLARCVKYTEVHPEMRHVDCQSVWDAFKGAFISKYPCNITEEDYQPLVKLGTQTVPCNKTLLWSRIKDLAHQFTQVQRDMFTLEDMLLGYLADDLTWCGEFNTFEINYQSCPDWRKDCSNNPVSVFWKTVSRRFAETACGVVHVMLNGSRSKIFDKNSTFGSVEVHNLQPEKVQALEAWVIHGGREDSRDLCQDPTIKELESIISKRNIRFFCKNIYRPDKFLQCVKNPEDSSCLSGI
Chain of BSA (BOVOGEN) (P02769 25-607 limits assumed): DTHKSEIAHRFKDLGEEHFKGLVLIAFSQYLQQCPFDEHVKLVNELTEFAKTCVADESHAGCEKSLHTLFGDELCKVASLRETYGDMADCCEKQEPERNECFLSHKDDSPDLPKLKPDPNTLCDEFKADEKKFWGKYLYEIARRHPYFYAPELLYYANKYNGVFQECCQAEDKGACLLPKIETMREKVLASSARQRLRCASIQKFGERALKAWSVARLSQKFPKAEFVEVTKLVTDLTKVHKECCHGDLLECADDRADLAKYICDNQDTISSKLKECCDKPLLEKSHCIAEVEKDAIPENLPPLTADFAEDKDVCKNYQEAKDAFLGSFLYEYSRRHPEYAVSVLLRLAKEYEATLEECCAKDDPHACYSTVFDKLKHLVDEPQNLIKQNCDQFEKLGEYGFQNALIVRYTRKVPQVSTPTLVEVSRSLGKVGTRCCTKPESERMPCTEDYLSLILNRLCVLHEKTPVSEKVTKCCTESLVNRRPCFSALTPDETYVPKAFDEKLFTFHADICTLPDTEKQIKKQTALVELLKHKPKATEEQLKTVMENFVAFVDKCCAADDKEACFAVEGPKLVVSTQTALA

EC50 (CD38-His fusion protein) [mg/L]	EC50 [1] [mg/L]	EC50 [2] [mg/L]	ADCC EC50, Daudi target cells with NK92MI-CD16a effector cells (LDH release) [3] [mg/L]	ADCC EC50, RPMI8226 target cells with NK92MI-CD16a effector cells (LDH release) [3] [mg/L]	ADCC EC50, Raji target cells with NK92MI-CD16a effector cells (LDH release) [3] [mg/L]	ADCC EC50, Ramos target cells with NK92MI-CD16a effector cells (LDH release) [3] [mg/L]	EC50 [5] [mg/L]	EC50 (antigen CD38 [11]) [mg/L]	Binder	also measured
–	–	–	–	–	–	–	–	0.0278	SG003M2 antibody (antibody, human IgG1, kappa, V domains shown, also called randomly mutated antibody SG003M1-3) VH: QVQLLESGGGLVQPGGSLKLSCVASGFDFSLYWMNWVRQAPGKGLEWIGKISPNSSTINYSPSLKDKFFISRDNAKNTLYLQMTKVRSEDTALYYCARLYIASGGFDYWGQGTTLTVSS VL: EIVMTQSPASLSASLGQRATISCRASSSVSSSAYSYVHWYQQKSGQPPKLLIYLASDLQSGVPARFSGSGSGTDFTLTIHPVESEDVATYYCHHSRELPYSFGSGTKLEIKR	–
–	–	–	–	–	–	–	–	0.0061	SG003M3 antibody (antibody, human IgG1, kappa, V domains shown, also called randomly mutated antibody SG003M1-3) VH: QVQLLESGGGLVQPGGSLKLSCVASGFDFSLYWMNWVRQAPGKGLEWIGKISPDSSSLNYTPSVKDKFFISRDNAKNTLYLQMTKVRSEDTALYYCARLWIATGGYNYWGQGTTLTVSS VL: EIVMTQSPASLSASLGQRATISCRASNSVSTSAFSYVHWYQQKSGQPPKLLIYLASNLESGVPARFSGSGSGTDFTLTIHPVESEDVATYYCHHSREVPFTFGSGTKLEIKR	–

The remaining lines, values behind:

Binder	EC50 (CD38-His fusion protein) [mg/L]	EC50 [1] [mg/L]	EC50 [2] [mg/L]	ADCC EC50, Daudi target cells with NK92MI-CD16a effector cells (LDH release) [3] [mg/L]	ADCC EC50, RPMI8226 target cells with NK92MI-CD16a effector cells (LDH release) [3] [mg/L]	ADCC EC50, Raji target cells with NK92MI-CD16a effector cells (LDH release) [3] [mg/L]	ADCC EC50, Ramos target cells with NK92MI-CD16a effector cells (LDH release) [3] [mg/L]	EC50 [5] [mg/L]	EC50 (antigen CD38 [11]) [mg/L]	also measured
Daratumumab (DARZALEX) (antibody, V domains shown) VH: EVQLLESGGGLVQPGGSLRLSCAVSGFTFNSFAMSWVRQAPGKGLEWVSAISGSGGGTYYADSVKGRFTISRDNSKNTLYLQMNSLRAEDTAVYFCAKDKILWFGEPVFDYWGQGTLVTVSS VL: not shown	0.151	0.0509	0.0951	0.0046	0.00494	0.017	0.00301	0.0493	–	EC50 [4]: 0.176 mg/L
humanized antibody SG003 (antibody, V domains shown, Full antibody expressed in CHO-S cells from vector pCMV-163 with a human IgG constant region; also called SG003 antibody) VH: QVQLLESGGGLVQPGGSLKLSCVASGFDFSLYWMNWVRQAPGKGLEWIGKINPDSSTINYTPSLKDKFFISRDNAKNTLYLQMTKVRSEDTALYYCARLWIATGGFDYWGQGTTLTVSS VL: EIVMTQSPASLSASLGQRATISCRASSSVSSSAFSYVHWYQQKSGQPPKLLIYLASNLESGVPARFSGSGSGTDFTLTIHPVESEDVATYYCHHSRELPFTFGSGTKLEIKR	0.0351	0.0367	0.0815	0.00072	0.00146	0.00697	0.00069	0.0344	–	binding result (BSA (BOVOGEN)): no binding; binding result [6]: no binding; binding result [7]: binds; binding result [8]: no binding; Kd (antigen CD38 [9]): 0.321 nM
SG003M1 antibody (antibody, human IgG1, kappa, V domains shown, also called randomly mutated antibody SG003M1-3) VH: QVQLLESGGGLVQPGGSLKLSCVASGYNFSLYYMNWVRQAPGKGLEWIGKIQPESSTIQYTPSLKDKFFISRDNAKNTLYLQMTKVRSEDTALYYCARLWIGSGGFDYWGQGTTLTVSS VL: EIVMTQSPASLSASLGQRASISCRASNSVSSSAYSYVHWYQQKSGQPPKLLIYLASNIQSGVPARFSGSGSGTDFTLTIHPVESEDVATYYCHHSRQLPSTFGSGTKLEIKR	–	–	–	–	–	–	–	–	0.0157	Kd (antigen CD38 [10]): 0.239 nM; koff (antigen CD38 [10]): 0.000636 s⁻¹; kon (antigen CD38 [10]): 2.66e+06 M⁻¹ s⁻¹
